Measured values as given in patent publication CN114560934A.

Molecular target: β-银环蛇毒素 (银环蛇) (UniProt P00617)

Row | Binder | 检测限 [ng/mL]
1 | β-BGT单克隆抗体株2B10E7 (antibody) VH: LTMDFGLSWVFLVLTLKGVKCEVQLVESGGGLVKPGGSLKLSCAASGFAFSTSDISWVRQTPEKRLEWVTYISNGAGNTYNPDTDKGTFTISRDNAKNTLYVQMSSLKSEDTAMYYCARHNASSLQFAYWGQGTLVTVSAVKTTPPSVYPLAPVCGD VL: DIVLTQSPASLAVSLGQRATISYRDSKSVSRSGYSYMHWNQQKPGQPPRLLIYLVSYLESGVPARFSGSGSGTDFTLNIHPVEEEDAATYYCQHTRELTRSEGGPSWKLNGLMLHQLYP | 20
2 | β-BGT单克隆抗体株3B10B7 (antibody) VH: LTMNFGLSWVFLVLTLKGVKCVVQLLESGRGLVKPGGSLKLSCAASGFAFSTYDTSWVRQTPEKRLEWVTYTSRGAGNTYYPDTVKGRFTISRDNAKNTLYVQMSSLKSEDTAMYYCARQSAWSLPIDYWGQGTLVTVSAAKTTPPSVYPLAPVCGG VL: DIVMTQTPASLAVSLGQRATISYRTSKRVTTSGYSYMHWNQQKPGQPPRLLIYLASILESGVPARFSGSGSGTDFTLNIHPVEEEDAATYYCQHISELIRSEGGPSWKSNGLMLHQLYP | 20
